Measured values as given in patent US20220144940A1 (VIELA BIO, published 2022).

How the values were obtained:
[1] = target: T1, recombinant human ILT7 protein (human, UniProt P59901 24-446, limits assumed); experiment: BIAcore SPR, IgG captured on chip, ILT7 protein as analyte, koff/kon
T1 construct: Soluble recombinant protein used in ProteOn and BIAcore SPR; also called rILT7; Soluble Recombinant Human ILT7
Procedure: (§1) BIAcore (surface plasmon resonance) was used to measure the kinetic rate (kₒₙ, koff) constants for the binding of afucosylated IgG₁ ILT70137 to human ILT7 protein using an IgG-capture assay format. The binding of each concentration of a two-fold dilution series of the ILT7 protein was recorded after first capturing IgG onto the sensor chip surface, followed by either the ILT7 protein or instrument buffer. In between each pair of injections, the IgG capture surface was regenerated. Individual association and dissociation rate constants were then calculated from the resulting binding curves using the Biaevaluation software available through the vendor's software employing a 1:1 fitting model, which included a term to correct for mass transport limited binding, should it be detected. […] The individual errors for kₒₙ and koff were low, and the overall fit to the data was good as judged by Chi2 values of ˜1% of the calculated Rₘₐₓ (maximum response).

cynomolgus ILT7 [2] = target: T2, cynomolgus ILT7 (cynomolgus, UniProt P59901 24-499 (human entry)); experiment: flow cytometry (MFI) on cell line stably expressing cynomolgus monkey ILT7
T2 construct: also called cyno ILT7; cynomolgus monkey ILT7
Procedure: (§2) Binding of afucosylated ILT70137 to ILT7 was determined using cell lines stably expressing human or cynomolgus monkey ILT7. The mean fluorescence intensity of cell-bound antibodies was assessed by flow cytometry. Cells were incubated with increasing concentrations of test antibody ranging from 0.004 to 333.3 nM for 30 minutes at 4° C. After incubation, cells were washed with cold PBS and incubated for 30 minutes at 4° C. with an anti-human-Alexa Fluor 647 antibody. Fluorescent intensity was then determined by FACS and EC₅₀ values were calculated using a non-linear fit equation in GraphPad Prism 6 software.

human ILT7 [3] = target: T3, human ILT7 (human, UniProt P59901 24-499); experiment: flow cytometry (MFI) on cell line stably expressing human ILT7
T3 construct: whole, on cells; also called LIRA4; LILRA4
Procedure: as §2

[4] = target: T1, recombinant human ILT7 protein; experiment: BIAcore SPR, IgG captured on chip, ILT7 protein as analyte, 1:1 model
Procedure: as §1

human ILT7 [5] = target: T3, human ILT7; experiment: cell-based or functional assay
cynomolgus ILT7 [6] = target: T2, cynomolgus ILT7; experiment: cell-based or functional assay
[7] = target: T1, recombinant human ILT7 protein; experiment: SPR on ProteOn
[8] = target: T4, HA-tagged human ILT7 on CT-550 cells (human, UniProt P59901 24-499); experiment: flow cytometry on human ILT7-expressing cells, left panel 'Human ILT7', table 'Ec50 (nM)'
T4 construct: whole, on cells; CT-550 cells: CT-125 cells (2B4 murine T-cell hybridoma with mouse FcεRIγ and NFAT-GFP reporter) transduced with HA-tagged human ILT7; also called human ILT7-expressing cells; not shown: HA tag
Procedure: (§3) Binding of anti-ILT7 variants and isotype controls on human and cynomolgus ILT7 was assessed by flow cytometry analysis using CT-550 and cynoILT7 CT-125 cells respectively. CT-125 cells were used as control. Cells were resuspended in Blocking Buffer (PBS supplemented with 10% FBS) at a concentration of 5 million cells per mL and transferred into a round-bottom 96-well plates (BD Falcon™ Clear Microtest Plate, BD Biosciences) at 100 μL per well. Anti-ILT7 variants and control antibodies were added onto the cells for 30 min at 4° C. on a plate shaker. Cells were washed three times with PBS and resuspended in Blocking Buffer (100 μL/well). Human IgG binding on cell surface was detected using a secondary anti-human IgG antibody conjugated to DyLight 649 (1 in 1000 dilution). Cells were incubated in the dark for 30 min at 4° C. on a plate shaker. Cells were washed three times with PBS and surface fluorescence was acquired using LSRII Flow Cytometry System and FACSDiva Software (both from BD Biosciences).

cynomolgus ILT7 [9] = target: T2, cynomolgus ILT7; experiment: flow cytometry on cynomolgus ILT7-expressing cells, right panel 'Cyno ILT7', table 'Ec50 (nM)'
Procedure: as §3

[10] = target: T4, HA-tagged human ILT7 on CT-550 cells; experiment: cell-based or functional assay
[11] = target: T4, HA-tagged human ILT7 on CT-550 cells; experiment: flow cytometry (MFI) on human ILT7-expressing cells
Procedure: as §3
Anfucosylated version of ILT70080.6 was generated. […] The tables in FIG. 15 provide the mean results of three independent binding experiments measuring mean fluorescence intensity (MFI).

cynomolgus ILT7 [12] = target: T2, cynomolgus ILT7; experiment: flow cytometry (MFI) on cynomolgus ILT7-expressing cells
Procedure: as §3

T4 sequence (P59901 24-499): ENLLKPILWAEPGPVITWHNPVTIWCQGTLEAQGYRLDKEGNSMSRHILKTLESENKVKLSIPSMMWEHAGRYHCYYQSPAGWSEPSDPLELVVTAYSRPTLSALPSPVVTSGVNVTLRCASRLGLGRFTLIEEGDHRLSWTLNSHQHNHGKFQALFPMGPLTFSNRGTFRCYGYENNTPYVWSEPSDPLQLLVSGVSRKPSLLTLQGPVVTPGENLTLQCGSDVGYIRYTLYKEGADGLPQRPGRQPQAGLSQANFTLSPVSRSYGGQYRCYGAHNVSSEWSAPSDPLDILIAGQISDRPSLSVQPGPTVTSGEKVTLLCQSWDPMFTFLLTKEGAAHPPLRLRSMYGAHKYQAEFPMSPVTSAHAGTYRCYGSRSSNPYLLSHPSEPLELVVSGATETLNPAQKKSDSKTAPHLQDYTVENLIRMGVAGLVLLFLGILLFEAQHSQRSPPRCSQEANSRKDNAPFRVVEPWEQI
T2 sequence (P59901 other isoform, or with tags, fused parts or gaps limits assumed): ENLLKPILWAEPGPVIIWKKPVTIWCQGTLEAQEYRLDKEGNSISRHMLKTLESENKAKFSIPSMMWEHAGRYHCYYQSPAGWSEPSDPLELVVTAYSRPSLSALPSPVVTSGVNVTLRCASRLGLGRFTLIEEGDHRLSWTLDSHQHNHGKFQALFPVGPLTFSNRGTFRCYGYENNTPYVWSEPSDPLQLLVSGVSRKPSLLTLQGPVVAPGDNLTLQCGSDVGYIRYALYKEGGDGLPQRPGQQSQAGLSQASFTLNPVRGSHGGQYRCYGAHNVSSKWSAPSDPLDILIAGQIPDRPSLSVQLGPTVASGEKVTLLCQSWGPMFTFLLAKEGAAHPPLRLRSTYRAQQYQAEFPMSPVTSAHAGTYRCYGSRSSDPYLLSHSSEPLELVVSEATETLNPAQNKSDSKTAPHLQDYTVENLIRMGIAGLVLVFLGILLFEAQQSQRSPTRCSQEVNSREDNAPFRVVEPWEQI
T1 sequence (P59901 24-446 limits assumed): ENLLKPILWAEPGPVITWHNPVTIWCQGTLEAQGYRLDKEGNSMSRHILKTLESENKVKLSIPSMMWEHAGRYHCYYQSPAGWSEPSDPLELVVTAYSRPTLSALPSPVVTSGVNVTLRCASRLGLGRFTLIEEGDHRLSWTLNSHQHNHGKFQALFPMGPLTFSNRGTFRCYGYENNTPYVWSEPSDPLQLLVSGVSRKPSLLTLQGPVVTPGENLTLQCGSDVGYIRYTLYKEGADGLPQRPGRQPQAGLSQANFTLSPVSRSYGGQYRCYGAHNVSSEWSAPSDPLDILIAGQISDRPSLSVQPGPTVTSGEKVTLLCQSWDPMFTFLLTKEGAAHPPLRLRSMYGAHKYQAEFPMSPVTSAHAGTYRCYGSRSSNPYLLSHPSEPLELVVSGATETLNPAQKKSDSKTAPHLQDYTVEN
T3 sequence (P59901 24-499): as the sequence (P59901 24-499) above

B1: afucosylated IgG1 ILT70137 (antibody, V domains shown)
VH: QVQLQQSGAEVKKPGASVKVSCKASGYTFTSYGISWVRQAPGQGLEWMGWISAYNGNTNYAQKLQGRVTMTTDTSTSTAYMELRSLRSDDTAVYYCARNGLWGWDSDAFDIWGRGTLVTVSS
VL: QSALTQPASVSGSPGQSITISCTGTSSDVGGYNYVSWYQQHPGKAPKLMIYDVSNRPSGVSNRFSGSKSGNTASLTISGLQAEDEADYYCSSYTSSSTVVFGGGTKVTVL
modifications: afucosylated (made as in Example 7: lacks the α-1,6 fucose moiety on the N-glycan at Asn-297 of the heavy chain)
notes: also called afucosylated ILT70137; Afuc IgG1 ILT70137
Kd [1]: 171 nM
EC50 (cynomolgus ILT7 [2]): 2.15 nM
EC50 (human ILT7 [3]): 0.303 nM
koff [4]: 0.0318 s⁻¹
kon [4]: 186000 M⁻¹ s⁻¹
ADCC EC50 (human ILT7 [5]): 0.00419 nM
ADCC EC50 (cynomolgus ILT7 [6]): 0.00189 nM

B2: 10D10 (antibody, V domains shown)
VH: EVQLVESGGGVVQPGRSLRLSCAASGFTFSTYPIEWVRQAPGQGLEWIGNFHLYNDDTKYNEKFKGRVTMTTDTSTSTVYMELSSLRSEDTAVYYCTRGDDYGMDYWGQGTLVTVSS
VL: NIQMTQSPSSLSASVGDRVTITCKASQNVRTAVAWYQQKPGKAPKRLIYLASNRHTGVPSRFSGSGSGTDFTLTISSLQSEDFATYYCLQHWNYPFTFGPGTKLEIK
notes: Humanized variant of SBI28 from a framework-shuffled Fab library
fold lower affinity than SBI28ch [7]: 3 fold

B3: afucosylated ILT70080 (antibody, V domains shown)
VH: QVQLVQSGAEVKAPGTSVKVSCKASGDSFRNYAVSWVRQAPGQGLEWMGAMMPSFGTREHSQQFNGRVTLSADESTSTAYLELSSLRYDDTAVYYCAGSRDYNAYHFWTGPPDFWGRGTLVTVSS
VL: SYELTQPPSVSVAPGKTAKISCGGDSVGSTSVHWYQQKPGQAPVMVMFYNSDRPSGIPERFSGSISGNTATLTISRVEAGDEADYYCQVWDTSSDHPEFGGGTKLTVL
modifications: afucosylated: lacks the α-1,6 fucose moiety on the N-glycan at Asn-297 of the heavy chain
notes: also called Afucosylated variant ITL70080
EC50 [8]: 0.34 nM
EC50 (cynomolgus ILT7 [9]): 0.4 nM
ADCC EC50 (cynomolgus ILT7 [6]): 0.00051 nM
ADCC EC50 [10]: 0.001 nM

B4: afucosylated ILT70080.6 (antibody, V domains shown)
VH: QVQLVQSGAEVKKPGSSVKVSCKASGDSFRNYAVSWVRQAPGQGLEWMGAMMPSFGTREHSQQFQGRVTLTADESTSTAYMELSSLRSEDTAVYYCAGSRDYNAYHFWTGPPDFWGRGTLVTVSS
VL: SYVLTQPPSVSVAPGKTARITCGGDSVGSTSVHWYQQKPGQAPVLVIYYNSDRPSGIPERFSGSNSGNTATLTISRVEAGDEADYYCQVWDTSSDHPEFGGGTKLTVL
modifications: afucosylated
notes: also called afucosylated ILT0080.6
EC50 [11]: 0.152 nM
EC50 (cynomolgus ILT7 [12]): 0.366 nM
ADCC EC50 (cynomolgus ILT7 [6]): 0.00044 nM
ADCC EC50 [10]: 0.00112 nM
